Assay results as given in the supplement of paper PMC9876800.

Tested on: peptide library, one residue held at a place counted from the S/T acceptor
Test: relative phosphorylation of the sub-library (ratio to the mean residue at this position); higher = residue favoured
Details: human
Outline: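 Purified recombinant kinases were reacted in 384-well plates with biotinylated degenerate peptide sub-libraries, each having one residue fixed at one position around a central Ser/Thr. The reaction mix contained 50 μM peptide plus 50 μM ATP spiked with γ-32P-ATP and ran for 90 min under kinase-specific conditions. Relative sub-library phosphorylation, taken from densitometry of phosphorimaged streptavidin membrane spots, is a ratio to the mean residue at that position.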

STK25, construct: Full length, sequence (O00506 whole entry, looked up): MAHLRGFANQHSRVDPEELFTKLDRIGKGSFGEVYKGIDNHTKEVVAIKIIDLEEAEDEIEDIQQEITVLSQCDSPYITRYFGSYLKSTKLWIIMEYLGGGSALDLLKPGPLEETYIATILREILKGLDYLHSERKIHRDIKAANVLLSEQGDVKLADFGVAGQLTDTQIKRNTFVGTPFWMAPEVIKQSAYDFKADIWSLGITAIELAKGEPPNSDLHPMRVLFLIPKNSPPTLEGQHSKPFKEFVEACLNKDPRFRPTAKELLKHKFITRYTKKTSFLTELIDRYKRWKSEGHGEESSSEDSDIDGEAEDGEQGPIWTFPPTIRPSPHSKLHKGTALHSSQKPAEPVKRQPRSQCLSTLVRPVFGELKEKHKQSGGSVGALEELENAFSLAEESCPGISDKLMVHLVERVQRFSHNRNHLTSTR
ULK1, construct: aa1-649, sequence (O75385 1-649, looked up): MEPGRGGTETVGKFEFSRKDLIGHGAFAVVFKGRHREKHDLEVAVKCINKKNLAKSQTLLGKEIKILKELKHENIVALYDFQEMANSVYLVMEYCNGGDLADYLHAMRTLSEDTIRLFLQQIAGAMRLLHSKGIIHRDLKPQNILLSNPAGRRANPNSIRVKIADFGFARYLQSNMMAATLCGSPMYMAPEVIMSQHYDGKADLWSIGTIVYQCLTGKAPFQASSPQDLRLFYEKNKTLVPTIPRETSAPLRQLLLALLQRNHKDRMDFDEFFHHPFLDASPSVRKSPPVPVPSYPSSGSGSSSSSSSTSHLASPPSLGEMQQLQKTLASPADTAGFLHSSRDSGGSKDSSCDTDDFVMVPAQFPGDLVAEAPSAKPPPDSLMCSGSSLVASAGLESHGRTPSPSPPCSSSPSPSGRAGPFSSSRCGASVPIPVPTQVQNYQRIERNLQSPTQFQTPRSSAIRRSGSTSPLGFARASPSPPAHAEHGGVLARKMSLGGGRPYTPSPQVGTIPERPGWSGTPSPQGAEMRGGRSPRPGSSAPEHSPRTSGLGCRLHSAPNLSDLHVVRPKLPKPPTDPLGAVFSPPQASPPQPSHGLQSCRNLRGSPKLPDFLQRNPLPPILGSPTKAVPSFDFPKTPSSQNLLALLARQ
STK24, construct: Full length, sequence (Q9Y6E0 whole entry, looked up): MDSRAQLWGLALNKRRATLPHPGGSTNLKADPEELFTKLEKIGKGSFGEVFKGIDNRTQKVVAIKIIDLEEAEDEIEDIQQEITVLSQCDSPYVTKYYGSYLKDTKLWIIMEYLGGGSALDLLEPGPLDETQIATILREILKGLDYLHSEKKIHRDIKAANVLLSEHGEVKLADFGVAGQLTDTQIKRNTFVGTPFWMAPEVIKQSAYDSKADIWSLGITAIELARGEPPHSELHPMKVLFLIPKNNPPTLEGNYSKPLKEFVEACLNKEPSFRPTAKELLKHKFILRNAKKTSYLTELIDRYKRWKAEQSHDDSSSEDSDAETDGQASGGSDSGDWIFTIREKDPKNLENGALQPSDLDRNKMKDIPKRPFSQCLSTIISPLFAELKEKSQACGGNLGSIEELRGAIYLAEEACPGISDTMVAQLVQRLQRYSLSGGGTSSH
STK26, construct: Full length, sequence (Q9P289 whole entry, looked up): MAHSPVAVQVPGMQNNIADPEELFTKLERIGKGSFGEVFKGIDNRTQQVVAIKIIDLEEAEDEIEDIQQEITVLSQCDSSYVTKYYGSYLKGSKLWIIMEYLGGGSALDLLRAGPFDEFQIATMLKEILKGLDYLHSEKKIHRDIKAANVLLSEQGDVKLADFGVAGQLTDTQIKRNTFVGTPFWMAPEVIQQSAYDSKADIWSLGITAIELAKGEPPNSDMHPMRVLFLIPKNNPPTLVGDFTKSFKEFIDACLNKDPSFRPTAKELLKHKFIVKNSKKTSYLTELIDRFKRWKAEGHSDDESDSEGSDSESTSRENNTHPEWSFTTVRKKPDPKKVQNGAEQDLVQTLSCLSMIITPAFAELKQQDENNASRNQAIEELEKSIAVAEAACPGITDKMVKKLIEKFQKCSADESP

STK24, construct: Full length (from UniProt Q9Y6E0)
relative phosphorylation
Details	at +1	at +2	at +3	at +4	at -1	at -2	at -3	at -4	at -5
A fixed	0.627	0.917	0.954	0.963	1.01	0.99	1.02	1.14	1.34
D fixed	0.166	0.344	0.465	0.516	0.762	0.388	0.58	0.738	0.689
E fixed	0.175	0.268	0.443	0.499	0.483	0.344	0.586	0.869	0.689
F fixed	1.29	0.471	0.999	0.679	0.781	1.19	0.855	0.867	0.873
G fixed	0.498	1.11	1.15	0.979	1.88	1.34	1.48	1.34	1.2
H fixed	0.946	1.11	1.17	1.03	1.12	1.44	1.05	1.08	1.07
I fixed	1.77	0.493	0.827	0.727	0.43	0.782	0.675	0.743	0.713
K fixed	0.827	3.1	2.09	2.43	1.57	1.41	1.84	1.51	1.87
L fixed	1.76	0.472	1.01	0.716	0.98	0.635	0.737	0.75	0.719
M fixed	1.61	0.6	0.843	0.846	0.897	0.702	0.738	0.81	0.68
N fixed	0.547	0.871	0.812	0.998	1.27	1.05	1.06	0.97	0.902
P fixed	0.401	0.807	0.802	0.952	0.751	0.765	0.959	0.94	1.2
Q fixed	0.673	0.789	0.822	0.936	0.945	0.91	0.935	1.01	0.926
R fixed	0.919	3.78	1.79	2.24	1.79	1.44	1.71	1.5	1.5
V fixed	1.47	0.615	0.828	0.693	0.546	0.83	0.71	0.772	0.851
W fixed	2.07	0.626	1.04	1.04	0.809	1.15	1.05	1.01	0.906
Y fixed	1.25	0.618	0.968	0.76	0.981	1.64	1.01	0.951	0.868
pThr fixed	1.19	1.05	0.892	0.801	0.865	1.28	1.61	1.33	1.43
pTyr fixed	0.488	0.389	0.748	0.55	1.1	0.833	1.15	0.836	1.16

STK25, construct: Full length (from UniProt O00506)
relative phosphorylation
Details	at +1	at +2	at +3	at +4	at -1	at -2	at -3	at -4	at -5
A fixed	0.561	0.853	0.857	0.981	0.996	1.07	0.986	1	1.24
D fixed	0.151	0.326	0.447	0.515	0.772	0.464	0.671	0.752	0.774
E fixed	0.166	0.195	0.404	0.454	0.538	0.398	0.604	0.865	0.682
F fixed	1.28	0.564	1.01	0.718	0.756	1.19	0.875	0.975	0.922
G fixed	0.443	1.13	1.17	1.12	1.98	1.26	1.27	1.1	1.21
H fixed	0.884	1.24	1.07	1.2	1.3	1.43	1.24	1.11	1.15
I fixed	1.87	0.572	0.895	0.845	0.453	0.86	0.777	0.775	0.801
K fixed	0.669	2.4	1.64	2.01	1.23	1.04	1.31	1.28	1.52
L fixed	1.56	0.486	0.865	0.743	0.901	0.791	0.844	0.8	0.758
M fixed	1.89	0.735	0.926	0.822	1.14	0.879	0.974	0.99	0.899
N fixed	0.474	1.08	0.985	0.919	1.26	1.01	1.13	1.03	0.902
P fixed	0.175	0.616	0.787	1.11	0.599	0.693	0.876	0.871	1
Q fixed	0.683	0.785	0.819	0.856	0.795	0.773	0.865	0.868	0.846
R fixed	0.947	3.75	2.26	2.19	1.66	1.25	1.38	1.3	1.38
V fixed	1.59	0.626	0.829	0.718	0.462	0.78	0.711	0.849	0.848
W fixed	2.17	0.772	0.979	0.943	0.862	1.33	1.26	1.25	1.02
Y fixed	1.48	0.872	1.06	0.852	1.3	1.79	1.23	1.18	1.05
pThr fixed	0.459	0.376	0.534	0.435	0.45	0.615	0.774	0.98	0.918
pTyr fixed	0.327	0.223	0.456	0.372	0.866	0.691	0.858	0.837	0.866

STK26, construct: Full length (from UniProt Q9P289)
relative phosphorylation
Details	at +1	at +2	at +3	at +4	at -1	at -2	at -3	at -4	at -5
A fixed	0.593	0.524	0.871	0.922	0.76	0.947	0.809	1.21	1.23
D fixed	0.265	0.606	0.583	0.538	0.894	0.424	0.625	0.745	0.706
E fixed	0.21	0.519	0.525	0.538	0.475	0.373	0.616	0.797	0.653
F fixed	1.24	0.246	0.869	0.625	0.499	0.972	0.754	0.771	0.777
G fixed	0.583	2.19	1.44	0.991	2.31	1.21	1.09	1.09	1.03
H fixed	0.805	1.06	1	1.06	1.11	1.35	1.01	1.17	1.05
I fixed	1.56	0.511	0.798	0.971	0.397	0.759	0.711	0.83	0.929
K fixed	0.666	3.49	2.55	2.01	2.16	2.08	2.31	1.64	1.92
L fixed	1.78	0.402	1.05	0.77	0.78	0.549	0.665	0.682	0.783
M fixed	1.3	0.358	0.667	0.818	0.666	0.613	0.79	0.773	0.74
N fixed	0.53	1.27	0.771	0.862	1.39	1.15	1.15	1.08	0.994
P fixed	0.372	1.03	0.636	0.828	0.551	0.659	0.739	0.879	0.791
Q fixed	0.642	0.774	0.741	0.932	0.938	0.882	0.903	0.939	1
R fixed	0.722	2.77	2.16	1.89	2.15	2.03	2.21	1.64	1.61
V fixed	1.4	0.517	0.751	0.874	0.483	0.942	0.846	0.954	1.01
W fixed	3.2	0.394	0.814	1.38	0.821	1.01	0.943	0.941	0.969
Y fixed	1.12	0.326	0.767	0.994	0.607	1.05	0.824	0.876	0.812
pThr fixed	0.722	0.707	0.584	0.815	0.813	1.05	0.981	0.958	0.86
pTyr fixed	0.604	0.368	0.714	0.54	1.2	1.19	0.996	0.69	0.834

ULK1, construct: aa1-649 (from UniProt O75385)
relative phosphorylation
Details	at +1	at +2	at +3	at +4	at -1	at -2	at -3	at -4	at -5
A fixed	0.56	0.645	0.867	0.899	1.17	1.22	0.964	1.16	1.15
D fixed	0.265	0.292	0.853	0.841	1.13	1.22	0.659	1.21	1.61
E fixed	0.424	0.307	0.834	0.944	1.19	1.19	0.572	0.905	1.02
F fixed	1.74	1.12	0.842	0.803	0.477	1.08	1.11	0.716	0.797
G fixed	0.359	0.409	1.04	1.11	0.79	0.916	0.884	1.3	1.18
H fixed	0.854	1.87	1.13	1.19	0.857	1.14	0.682	1.01	1.15
I fixed	1.53	1.26	0.869	0.738	0.543	0.753	0.674	0.678	0.572
K fixed	0.615	0.849	1.48	1.32	1.83	0.608	0.404	0.832	1.09
L fixed	1.13	0.94	0.901	0.836	0.723	0.799	1.56	0.821	0.733
M fixed	2.01	1.23	0.906	0.848	1.19	1.09	4.03	1.07	0.786
N fixed	0.563	0.816	0.891	1.01	1.09	0.947	1.1	1.2	1.42
P fixed	0.234	0.211	0.927	1.32	0.397	0.439	0.698	1.27	0.811
Q fixed	1.26	0.753	1.24	1.17	1.52	0.991	0.837	1.02	0.957
R fixed	0.725	0.989	1.2	0.993	1.57	0.545	0.447	0.844	1.1
V fixed	1.47	1.02	0.866	0.77	0.903	0.913	0.574	0.659	0.661
W fixed	1.39	1.65	1.1	1.2	0.82	1.93	1.2	1.6	1.18
Y fixed	1.87	2.64	1.04	1	0.794	1.22	0.599	0.716	0.786
pThr fixed	0.885	0.413	0.718	1.13	0.568	0.67	0.704	0.846	0.762
pTyr fixed	1.14	0.618	0.648	0.615	0.99	1.12	0.642	0.672	0.664
